This note sets out measurements from paper PMC3320896.

In the test the target is recombinant Hepatitis B surface antigen (rHBsAg) virus-like particle, S form of HBsAg (Hepatitis B virus). Kind of test: cryo-EM structure; redox-treated rHBsAg VLPs in vitrified ice; 3D reconstruction with octahedral symmetry imposed, nominal resolution ~1.5 nm (FSC0.5); monomers counted from the volume of segmented protein density.

Regarding “recombinant Hepatitis B surface antigen (rHBsAg) virus-like particle, S form of HBsAg (natural protein)”, the stoichiometry N (protein monomers per particle) turned out to be 96.
